In assay [1] the target is high-affinity oncomodulin receptor on retinal ganglion cells (RGCs) (rat). Put plainly: AP-OM binding to lightly fixed, forskolin-treated immunopurified rat RGCs; saturation curve and Scatchard plot.
For assay [2] the target is unchanged. Nature of the assay: AP-OM binding to lightly fixed, forskolin-treated immunopurified rat RGCs; saturation curve.
Assay [3] has the same target. Put plainly: displacement of AP-OM (40 nM, equilibrium binding) from RGCs by unlabeled oncomodulin.
The target is the same in assay [4]. Put plainly: cell-based or functional assay.

Here are results for two substances from patent US20090156496A1, “METHODS AND COMPOSITIONS FOR TREATING AND PREVENTING PERIPHERAL NERVE DAMAGE” (CHILDREN'S MEDICAL CENTER CORPORATION, INC., priority 2006, published 2009).

In assay [1], “alkaline phosphatase (AP)-oncomodulin fusion protein (from UniProt P02631 1-109) (ligand)” gave a Kd of 28 nM. The same substance showed a concentration at which binding saturated in assay [2] of more than 100 nM.

On to “recombinant rat oncomodulin (from UniProt P02631 2-109) (ligand)”, for which the IC50 in assay [3] amounted to 30 nM. This substance also gave an effective concentration for half-maximum response (EC50) of axon outgrowth from RGCs in assay [4] of 3.8 nM.

For orientation: Kd means a measure of binding affinity in units of concentration. For orientation: IC50 means the point on the concentration scale where inhibition reaches its midpoint. Read a high IC50 as lower potency.
